What was measured:
[1] = target: T1, pre-formed complex of hIL-33 and captured hST2-MMH (human, UniProt O95760 112-270); assay: SPR 25C, 100 nM mAb over hIL-33/hST2-MMH complex
T1 construct: Ligand-receptor complex on the sensor: hST2-MMH captured by anti-myc mAb and saturated with 100 nM hIL-33; also called hIL-33 pre-complexed with hST2-MMH
Method: The ability of anti-IL-33 antibodies to bind to a pre-formed complex of IL-33 with ST2 was tested using Biacore T-200 instrument equipped with a real-time surface plasmon resonance biosensor. The experiment was performed at 25° C. with a running buffer composed of 0.01M HEPES pH 7.4, 0.15M NaCl, 3 mM EDTA, and 0.05% v/v Surfactant Tween-20 (HBS-ET). […] The captured hST2-MMH surface was then saturated by injecting 100 nM of human IL-33 (hIL-33; R&D Systems, #3625-IL-010/CF) for 3 minutes followed by a 3 minute injection of a 100 nM solution of the anti-IL-33 monoclonal antibody. The real-time binding response was monitored during the entire course of the experiment, and the observed binding response at 3 minutes after injection of anti-IL-33 antibody to the pre-formed complex of hIL-33 and captured hST2-MMH was recorded and tabulated and shown in Table 7. No non-specific binding of anti-IL-33 monoclonal antibody to the anti-myc tag capture surface was observed.

[2] = target: T2, biotinylated hIL-33 protein (R&D systems, Cat #3625-IL/CF) (human, UniProt O95760 112-270, biotinylated (sites not given)); assay: competition ELISA, 30 pM biotin-hIL-33 on coated hST2-hFc
T2 construct: Same commercial protein as m21, biotin-labelled; also called biotin-hIL-33
T2 sequence (looked up): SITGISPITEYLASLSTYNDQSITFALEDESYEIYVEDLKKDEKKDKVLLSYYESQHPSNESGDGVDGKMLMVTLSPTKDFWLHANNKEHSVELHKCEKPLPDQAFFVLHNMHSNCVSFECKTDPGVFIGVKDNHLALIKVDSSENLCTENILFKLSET
Method: (§1) The ability of anti-IL-33 antibodies to block either human IL-33 (hIL-33) or cynomologus monkey IL-33 binding to the human ST2 receptor was measured using a competition sandwich ELISA. […] The antibody/IL-33 mixtures were incubated for 1 hour at room temperature before they were transferred to the hST2-hFc-coated microtiter plates. After incubating for 1 hour at room temperature, the wells were then washed, and plate-bound biotin-hIL-33 was detected with streptavidin conjugated with horse-radish peroxidase (HRP) (Thermo Scientific, Cat # N200), and plate-bound MfIL-33-6His was detected with a HRP conjugated anti-His monoclonal antibody (Qiagen, #34460). All samples were developed with a TMB solution (BD biosciences, #51-2607KC) to produce a colorimetric reaction and then quenched by acidification with 1M sulfuric acid before measuring absorbance at 450 nm on a Victor X5 plate reader. Data analysis was performed using a sigmoidal dose-response model within Prism™ software. […] Percent blockade was calculated as the ratio of the reduction in signal observed in the presence of antibody relative to the difference between the signal with IL-33 alone and background (signal from HRP-conjugated secondary antibody or streptavidin alone). The absorbance measured for the constant concentration of biotin-hIL-33 or MfIL-33-6His alone is defined as 0% blocking and the absorbance measured for no added IL-33 is defined as 100% blocking.

[3] = target: T3, human IL-33 (R&D Systems, #3625-IL-010/CF) (human, UniProt O95760 112-270); assay: BLI; hIL-33 pre-mixed with mAb-2 H1M9565N
T3 construct: Commercial recombinant protein; also called hIL-33; interleukin-33
T3 sequence (looked up): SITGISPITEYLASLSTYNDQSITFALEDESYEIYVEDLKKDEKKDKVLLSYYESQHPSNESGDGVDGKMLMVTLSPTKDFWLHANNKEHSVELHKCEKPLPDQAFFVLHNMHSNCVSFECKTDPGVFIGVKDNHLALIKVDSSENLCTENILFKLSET
Method: (§2) Binding competition between a panel of different anti-IL-33 monoclonal antibodies was determined using a real time, label-free bio-layer interferometry assay on an Octet® HTX biosensor (ForteBio, A Division of Pall Life Sciences). The experiment was performed at 25° C. using a buffer of 0.01M HEPES pH7.4, 0.15M NaCl, 0.05% v/v Surfactant Tween-20, and 0.1 mg/ml BSA (HBS-ET kinetics buffer) with the plate shaking at a speed of 1000 rpm. To assess whether two antibodies were able to compete with one another for binding to human IL-33, a pre-mix assay format was used where 100 nM of human IL-33 (R&D Systems; #3625-IL-010/CF) was pre-mixed with 500 nM of different anti-IL-33 monoclonal antibodies (subsequently referred to as mAb-2) for at least 2 hours prior to running the binding competition assay. […] Following the capture step, unoccupied anti-mouse Fc polyclonal antibody and anti-human Fc polyclonal antibody on the Octet biosensors were saturated by submerging them for 4 minutes into wells containing 200 μg/mL of a non-specific monoclonal antibody with a mouse Fc or with a human Fc, respectively. Finally, the Octet biosensors were immersed for 4 minutes into wells containing the pre-mixed samples of 100 nM of human IL-33 and 500 nM of mAb-2. At the end of each cycle, the non-covalently captured anti-IL-33 antibodies along with the bound pre-complex of human IL-33 and mAb-2 were removed from the biosensors using three alternate 20 second immersions into 10 mM HCl followed by submerging into HBS-ET kinetics buffer. The biosensors were washed in HBS-ET kinetics buffer in between every step of the experiment. The real-time binding response was monitored during the binding events, and the binding response (in units of nm) at the end of every step was recorded.

[4] = target: T3, human IL-33 (R&D Systems, …); assay: BLI; hIL-33 pre-mixed with mAb-2 Isotype control 1
Method: as §2

[5] = target: T4, cynomolgus monkey IL-33 expressed with a C-terminal hexahistidine tag (cynomolgus monkey); assay: competition ELISA, 150 pM MfIL-33-6His on coated hST2-hFc
T4 construct: also called MfIL-33-6His; Mf-IL-33-6His
T4 chain: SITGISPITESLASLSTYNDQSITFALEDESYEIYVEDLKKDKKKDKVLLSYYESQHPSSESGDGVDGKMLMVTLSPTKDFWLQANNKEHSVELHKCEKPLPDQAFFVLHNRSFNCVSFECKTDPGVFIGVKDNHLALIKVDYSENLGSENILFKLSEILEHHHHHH
Method: as §1

Binder	Antibody Binding Response (RU) [1] [RU]	% Maximum blocking [2] [%]	IC50 [2] [nM]	mAb-1 Binding to the Pre-complex of mAb-2 & hIL-33 [3] [nm]	mAb-1 Binding to the Pre-complex of mAb-2 & hIL-33 [4] [nm]	% Maximum blocking [5] [%]	IC50 [5] [nM]
H4H9663P (antibody, human IgG4, V domains shown, Human IgG4 Fc (H4H)) VH: QVQLVQSGAEVKKPGASVKVSCKASGYTFTGHYMYWMRQAPGQGLEWMGWINPNSGGTNYAQKFQDRVTMTRDTSISTAYMELSRLRSDDTAVYYCARGRYGSSWYGGFEYWGQGTLVTVSS VL: DIQMTQSPSSVSASVGDRVTITCRASQGITSWLAWYQQKPGKAPNLLIYAAASLQSGVPSRFSGSGSGTDFTLTISSLQPEDFTTYYCQQAYSLPLTFGGGTKVEIK	-1	74	0.5	0.54	0.17	81	1.2
H4H9666P (antibody, human IgG4, V domains shown, Human IgG4 Fc (H4H)) VH: QVQLVQSGAEVKKPGASVKVSCKASGYTFTSYGISWVRQAPGQGLEWMGWIRAYNGYTNYAQKFQGRVTMTTDTSTNTAYMELRTLNSDDTAVYYCARDRYSGSFHGNFDYWGQGTLVTVSS VL: DIQMTQSPSSVSASVGDRVTITCRASQGIFSWLAWYQQKPGKAPKVLIYAASNLESGVPSRFSGSGSGTDFTLTISSLQPEDFATYYCQQANSLPLTFGGGTKVEIK	-1	71	0.6	0.56	0.15	40	13
H4H9671P (antibody, human IgG4, V domains shown, Human IgG4 Fc (H4H)) VH: EVQLVESGGGLVQPGGSLRLSCAASGFTLRSYFMTWVRQVPGKGLEGVSAISGISGGTYYTDSVKGRFTISRDNSKNTLFLQMNSLRAEDTAVYFCARTVYSSSYYGGFQHWGQGTLVTVSS VL: DIQMTQSPSSVSVSVGDRVTITCRASQGISSWLAWYQQKPGKAPKLLIYVASSLQSGVPSRFSGSGSGTDFTLTISSLQPEDFATYYCQQTNSFPLTFGGGTKVEIK	-1	46	0.46	0.57	0.13	62	0.58
H4H9664P (antibody, human IgG4, V domains shown, Human IgG4 Fc (H4H)) VH: QVQLVESGGGVVQPGRSLRLSCAASGFTFSSYGLHWVRQSPGKGLEWVALISYDGSNKYYADSVKGRFTISRDNSKNTLYLQMNSLRPEDTAGYFCAKSLYTTSWYGGFDYWGQGTLVTVSS VL: DIQMTQSPSSVSASVGDRVTITCRASQGIRSWLAWYQQKPGKAPNLLIYAASSLQSGVPSRFSGSGSGTDFTLTISSLQPEDFATYYCQQANSFPPTFGPGTKVDIK	-1	73	0.3	0.48	0.16	67	3.8
H4H9667P (antibody, human IgG4, V domains shown, Human IgG4 Fc (H4H)) VH: EVQLVESGGGLVQPGGSLRLSCAASGFTFSTYSMHWVRQAPGKGLEYVSTINNNGDTTYYADSVKGRFTISRDNSKNTLYLQLGSLRPEDMAVYYCARQTYTSSWYGGFDSWGQGTLVTVSS VL: DIQMTQSPSSVSASVGDRVTITCRASQGITSWLAWYQQKPGKAPKLLIYAASNLQSGVPSRFSGSGSGTDFTLTITSLQPEDFATYYCQQANSLPFTFGPGTKVDIK	-1	78	0.41	0.48	0.23	72	4.1
H4H9670P (antibody, V domains shown, Human IgG4 Fc (H4H)) VH: EVQLVESGGGLVQPGGSLRLSCAASGFTLSSYAMSWVRQAPGKGLEWVSAISGSGGSTYYADSVKGRFTISRDNSKNSLYLQLNSLRAEDTAVYYCAKTLYTTSWYGGFQHWGQGTLVTVSS VL: DIQMTQSPSSVSASIGDRVTITCRASQGISSWLAWYQQKPGKVPKLLIYAASSLQSGFPSRFSGSGSGTDFTLTISSLQPEDFATYYCQQTHSFPWTVGQGTKVEIK	-1	69	0.48	0.51	0.19	69	3.5
H4H9672P (antibody, human IgG4, V domains shown, Human IgG4 Fc (H4H)) VH: EVQLVESGGGLVQPGGSLRLSCAASGFTLRSYVMYWVRQGPGKGLEGVSGISGSSGGTYYTDSVKGRFTISRDNSKNTLFLQMNSLRAEDTAVYFCARSVYSTTWYGGFQHWGQGTLVTVSS VL: DIQMTQSPSSVSVSVGDRVTITCRASQVISSWLAWYQLKPGKAPKLLIYAASSLQSGVPSRFSGSGSGTDFTLTISGLQPEDFAVYYCQQTNSFPLTFGGGTKVEIK	-1	63	0.44	0.52	0.16	48	5.5
H4H9675P (antibody, human IgG4, V domains shown, Human IgG4 Fc (H4H)) VH: EVQLVESGGNLEQPGGSLRLSCTASGFTFSRSAMNWVRRAPGKGLEWVSGISGSGGRTYYADSVKGRFTISRDNSKNTLYLQMNSLSAEDTAAYYCAKDSYTTSWYGGMDVWGHGTTVTVSS VL: DIQMTQSPSSVSASVGDRVTITCRASQGIFSWLAWYQQKPGKAPKLLIYAASSLQSGVPSRFSGSGSGTDFTLTISSLQPEDFAIYYCQQANSVPITFGQGTRLEIK	-1	58	0.44	0.51	0.13	72	1.5
H4H9665P (antibody, human IgG4, V domains shown, Human IgG4 Fc (H4H)) VH: EVQLVESGGGLVQPGGSLRLSCAASGFTFSNYAMTWVRQAPGKGLEWVSTISGSGDNTYYADSVQGRFTISRGHSKNTLYLQMNSLRAEDTAVYYCAKPTYSRSWYGAFDFWGQGTMVTVSS VL: DIQMTQSPSSVSASVGDRVTITCRASQGISSWLAWYQQKPGKAPQLLIYAASRLQSGVPSRFWGSGSGTDFTLTISSLQPEDFATYYCQQANNFPFTFGPGTKVDIK	0	55	0.87	0.66	0.14	81	0.42

Reference: US20160362487A1 (Regeneron, published 2016)
